In experiment [1] the target is mono-ubiquitin (untagged, native N- and C-termini) (UniProt P0CG48 1-76). The experiment can be described thus: crystal structure.
The target of experiment [2] is linear di-ubiquitin (UniProt P0CG48 1-76; P0CG48 1-76). The experiment in a line: ITC. In general terms: Isothermal titration calorimetry measures the heat released or taken up as one component is titrated into another.

B1: HOIP-RBR (residues 696–1072) (domain or fragment, human, UniProt Q96EP0 696-1072, looked up)
chain: AQECAVCGWALPHNRMQALTSCECTICPDCFRQHFTIALKEKHITDMVCPACGRPDLTDDTQLLSYFSTLDIQLRESLEPDAYALFHKKLTEGVLMRDPKFLWCAQCSFGFIYEREQLEATCPQCHQTFCVRCKRQWEEQHRGRSCEDFQNWKRMNDPEYQAQGLAMYLQENGIDCPKCKFSYALARGGCMHFHCTQCRHQFCSGCYNAFYAKNKCPEPNCRVKKSLHGHHPRDCLFYLRDWTALRLQKLLQDNNVMFNTEPPAGARAVPGGGCRVIEQKEVPNGLRDEACGKETPAGYAGLCQAHYKEYLVSLINAHSLDPATLYEVEELETATERYLHVRPQPLAGEDPPAYQARLLQKLTEEVPLGQSIPRRRK
B1: the binding result in experiment [1] and in experiment [2] was “binds” each time.

The values are drawn from paper PMC4856479 (Nature, 2016).
